Starred links: 1 amine or outer side, 2 acyl side, 3 side chain; linkers in the order of their positions; H or OH if unused. Non-standard residues stand in square brackets, D forms with d. F(4amPEG2NHDOTA-Lu) = lutetium complex of (S)-2,2',2''-(10-(1-(4-(2-amino-2-carboxyethyl)phenyl)-3,12-dioxo-5,8-dioxa-2,11-diazatridecan-13-yl)-1,4,7,10-tetraazacyclododecane-1,4,7-triyl)triacetic acid (Phe with 4-aminomethyl-PEG2-DOTA-Lu), O=C([O-])CN1CCN(CC(=O)[O-])CCN(CC(=O)NCCOCCOCC(=O)NCc2ccc(C[C@H](N[*:1])C(=O)[*:2])cc2)CCN(CC(=O)[O-])CC1.[Lu+3]; F4(amMeBAlaDOTALu) = lutetium complex of (S)-2,2',2''-(10-(2-((3-((4-(2-amino-2-carboxyethyl)benzyl)amino)-3-oxopropyl)(methyl)amino)-2-oxoethyl)-1,4,7,10-tetraazacyclododecane-1,4,7-triyl)triacetic acid (Phe with 4-aminomethyl-N-methyl-βAla, CN(CCC(=O)NCc1ccc(C[C@H](N[*:1])C(=O)[*:2])cc1)C(=O)CN1CCN(CC(=O)[O-])CCN(CC(=O)[O-])CCN(CC(=O)[O-])CC1.[Lu+3]; F4(amBAlaDOTALu) = lutetium complex of (S)-2,2',2''-(10-(2-((3-((4-(2-amino-2-carboxyethyl)benzyl)amino)-3-oxopropyl)amino)-2-oxoethyl)-1,4,7,10-tetraazacyclododecane-1,4,7-triyl)triacetic acid (Phe with 4-aminomethyl-βAla-DOTA-Lu), O=C([O-])CN1CCN(CC(=O)[O-])CCN(CC(=O)NCCC(=O)NCc2ccc(C[C@H](N[*:1])C(=O)[*:2])cc2)CCN(CC(=O)[O-])CC1.[Lu+3]; F4(amGlyDOTALu) = lutetium complex of (S)-2,2',2''-(10-(2-((2-((4-(2-amino-2-carboxyethyl)benzyl)amino)-2-oxoethyl)amino)-2-oxoethyl)-1,4,7,10-tetraazacyclododecane-1,4,7-triyl)triacetic acid (Phe with 4-aminomethyl-Gly-DOTA-Lu), O=C([O-])CN1CCN(CC(=O)[O-])CCN(CC(=O)NCC(=O)NCc2ccc(C[C@H](N[*:1])C(=O)[*:2])cc2)CCN(CC(=O)[O-])CC1.[Lu+3]; F(4OEtNHDOTA-Lu) = lutetium complex of (S)-2,2',2''-(10-(2-((2-(4-(2-amino-2-carboxyethyl)phenoxy)ethyl)amino)-2-oxoethyl)-1,4,7,10-tetraazacyclododecane-1,4,7-triyl)triacetic acid (Phe with 4-O-ethylamino-DOTA-Lu), O=C([O-])CN1CCN(CC(=O)[O-])CCN(CC(=O)NCCOc2ccc(C[C@H](N[*:1])C(=O)[*:2])cc2)CCN(CC(=O)[O-])CC1.[Lu+3]; F(4OEtNHDOTA-Ga) = gallium complex of (S)-2,2',2''-(10-(2-((2-(4-(2-amino-2-carboxyethyl)phenoxy)ethyl)amino)-2-oxoethyl)-1,4,7,10-tetraazacyclododecane-1,4,7-triyl)triacetic acid (Phe with 4-O-ethylamino-DOTA-Ga), O=C([O-])CN1CCN(CC(=O)[O-])CCN(CC(=O)NCCOc2ccc(C[C@H](N[*:1])C(=O)[*:2])cc2)CCN(CC(=O)[O-])CC1.[Ga+3]; K(COpipzaa) = N6-(4-(carboxymethyl)piperazine-1-carbonyl)-L-lysine, O=C(NCCCC[C@H](N[*:1])C(=O)[*:2])N1CCN(CC(=O)[*:3])CC1; F4(METRIAZOLYLMENHDOTA-Lu) = Phe with 4-(methyl-triazolyl-methyl-NH-DOTA), Lu complex; F(4OEtNHRDOTAGA-Ga) = Phe with 4-O-ethyl-NH-DOTAGA, Ga complex; hS(Pr) = O-propyl-L-homoserine, CCCOCC[C@H](N[*:1])C(=O)[*:2]; 3Pal(6-NH2) = Nc1ccc(C[C@H](N)C(=O)O)cn1; NMeF = CN[C@@H](Cc1ccccc1)C(=O)O; Ahp(2) = CCCCC[C@H](N)C(=O)O
How the values were obtained:
[1] = biological target: T1, human FAP (Homo sapiens, UniProt Q12884); assay: Enzymatic FAP competition assay (Z-Gly-Pro-AMC fluorescence), human FAP; format: biochemical; details: read-out: h. FAP, Enz., IC50
T1 construct: the biotinylated His, Avi tag, human FAP (26-760, FAP-H82Q6); His; Avi tag (biotinylated); purchased AcroBiosystems FAP-H82Q6
T1 sequence (Q12884 26-760): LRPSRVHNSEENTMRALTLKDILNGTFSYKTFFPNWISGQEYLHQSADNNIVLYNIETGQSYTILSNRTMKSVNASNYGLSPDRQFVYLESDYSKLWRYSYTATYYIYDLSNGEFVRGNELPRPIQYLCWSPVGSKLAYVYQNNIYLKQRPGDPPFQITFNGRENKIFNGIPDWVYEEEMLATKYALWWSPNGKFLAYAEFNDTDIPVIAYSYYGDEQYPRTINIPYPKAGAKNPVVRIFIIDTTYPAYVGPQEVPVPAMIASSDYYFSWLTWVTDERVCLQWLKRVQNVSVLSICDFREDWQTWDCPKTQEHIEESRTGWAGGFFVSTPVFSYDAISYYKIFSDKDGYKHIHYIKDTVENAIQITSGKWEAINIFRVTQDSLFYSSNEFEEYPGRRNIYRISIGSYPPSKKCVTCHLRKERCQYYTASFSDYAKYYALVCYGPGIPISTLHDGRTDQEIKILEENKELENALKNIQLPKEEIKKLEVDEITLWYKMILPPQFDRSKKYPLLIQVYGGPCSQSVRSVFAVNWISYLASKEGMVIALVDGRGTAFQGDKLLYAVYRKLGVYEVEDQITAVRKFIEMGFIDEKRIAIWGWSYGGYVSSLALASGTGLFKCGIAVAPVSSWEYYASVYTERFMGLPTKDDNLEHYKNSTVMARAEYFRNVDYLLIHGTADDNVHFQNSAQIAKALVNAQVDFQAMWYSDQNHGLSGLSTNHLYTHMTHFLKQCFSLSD
How it was run: (§1)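 Biotinylated His/Avi-tagged FAP ectodomain (human 26-760, mouse 26-761) at 0.01 nM, preincubated 24 h with peptides (14 concentrations, up to 1 μM) in pH 7.5 phosphate, 150 mM NaCl, 0.05% Tween20, 1% DMSO. Then 50 μM Z-Gly-Pro-AMC, 4 h at 22-24° C; AMC fluorescence (380/460 nm) gave IC50 from duplicate points.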

[2] = biological target: T2, mouse FAP (Mus musculus, UniProt P97321); assay: Enzymatic FAP competition assay (Z-Gly-Pro-AMC fluorescence), mouse FAP; format: biochemical; details: read-out: m. FAP, Enz., IC50
T2 construct: biotinylated His, Avi tag, mouse FAP (26-761, FAP-M82Q5); His; Avi tag (biotinylated); purchased AcroBiosystems FAP-M82Q5
T2 sequence (P97321 26-761): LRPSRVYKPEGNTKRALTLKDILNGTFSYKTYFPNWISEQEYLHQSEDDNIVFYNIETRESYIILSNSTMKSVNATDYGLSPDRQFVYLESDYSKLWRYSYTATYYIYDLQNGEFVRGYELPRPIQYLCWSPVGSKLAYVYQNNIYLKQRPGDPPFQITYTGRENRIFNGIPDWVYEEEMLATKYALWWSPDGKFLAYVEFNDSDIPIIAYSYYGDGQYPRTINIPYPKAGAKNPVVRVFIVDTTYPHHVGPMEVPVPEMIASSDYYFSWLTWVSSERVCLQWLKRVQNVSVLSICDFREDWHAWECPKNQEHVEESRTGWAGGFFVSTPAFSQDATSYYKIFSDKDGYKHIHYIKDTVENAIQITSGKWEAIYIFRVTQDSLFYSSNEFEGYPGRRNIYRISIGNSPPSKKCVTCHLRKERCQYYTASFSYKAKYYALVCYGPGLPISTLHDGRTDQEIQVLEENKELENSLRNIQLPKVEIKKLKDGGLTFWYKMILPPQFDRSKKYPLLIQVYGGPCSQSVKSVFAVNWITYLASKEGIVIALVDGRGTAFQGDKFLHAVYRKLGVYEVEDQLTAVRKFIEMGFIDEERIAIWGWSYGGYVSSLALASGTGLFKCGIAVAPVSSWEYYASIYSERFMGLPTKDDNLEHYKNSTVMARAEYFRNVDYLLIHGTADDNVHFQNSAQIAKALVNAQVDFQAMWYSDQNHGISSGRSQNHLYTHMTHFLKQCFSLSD
How it was run: as §1

[3] = biological target: T2, mouse FAP; assay: Surface plasmon resonance (SPR) for peptide affinity, mouse FAP; format: binding
How it was run: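 Biotinylated His/Avi-tagged FAP ectodomains (human 26-760, mouse 26-761) captured or immobilized on Biacore sensor chips; peptides run at 25 °C in HBS-EP+ pH 7.6 with 2% DMSO, single-cycle kinetics, 8 concentrations. KD from 1:1 binding-model fit of sensorgrams.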

| Substance | IC50 [1] [nM] | IC50 [2] [nM] | Kd [3] [nM] |
| --- | --- | --- | --- |
| Glu-Gly-NMePhe-F(4amPEG2NHDOTA-Lu)-hS(Pr)-Trp-Gly-K(COpipzaa)-Asp-D-Pro (cyclo(EG[NMeF][F(4amPEG2NHDOTA-Lu)][hS(Pr)]WG[K(COpipzaa)]D[dP]); also: Lu complex of DOTA) [Example C5] | 0.019 | 0.049 | < 0.084 |
| Gly-Gly-NMe3PyA-F(4amPEG2NHDOTA-Lu)-hS(Pr)-W7N-Gly-K(COpipzaa)-Asp-D-Pro [Example C3] | 0.007 | 0.019 | < 0.041 |
| Gly-Gly-NMePhe-F4(METRIAZOLYLMENHDOTA-Lu)-Ahp-Trp-Gly-Tyr-Asp-D-Pro (cyclo(GG[NMeF][F4(METRIAZOLYLMENHDOTA-Lu)][Ahp(2)]WGYD[dP]); also: Lu complex) [Example C14] | 0.009 | 0.024 | 0.048 |
| Gly-Gly-NMePhe-F4(amBAlaDOTALu)-Ahp-Trp-Gly-Tyr-Asp-D-Pro (cyclo(GG[NMeF][F4(amBAlaDOTALu)][Ahp(2)]WGYD[dP]); also: Lu complex) [Example C10] | 0.01 | 0.024 | 0.033 |
| Gly-Gly-NMePhe-F4(amGlyDOTALu)-Ahp-Trp-Gly-Tyr-Asp-D-Pro (cyclo(GG[NMeF][F4(amGlyDOTALu)][Ahp(2)]WGYD[dP]); also: Lu complex) [Example C9] | 0.01 | 0.024 | 0.032 |
| Gly-Gly-NMePhe-F4(amMeBAlaDOTALu)-Ahp-Trp-Gly-Tyr-Asp-D-Pro (cyclo(GG[NMeF][F4(amMeBAlaDOTALu)][Ahp(2)]WGYD[dP]); also: Lu complex) [Example C11] | 0.009 | 0.024 | 0.028 |
| Gly-Gly-NMePhe-F(4OEtNHDOTA-Ga)-Ahp-Trp-Gly-K(COpipzaa)-Asp-D-Pro (cyclo(GG[NMeF][F(4OEtNHDOTA-Ga)][Ahp(2)]WG[K(COpipzaa)]D[dP]); also: Ga complex of DOTA) [Example C50] | 0.046 | 0.052 | < 0.02 |
| Gly-Gly-NMePhe-F(4OEtNHDOTA-Ga)-Ahp-Trp-Gly-Tyr-Asp-D-Pro (cyclo(GG[NMeF][F(4OEtNHDOTA-Ga)][Ahp(2)]WGYD[dP]); also: Ga complex of DOTA) [Example C51] | 0.03 | 0.058 | 0.026 |
| Gly-Gly-NMePhe-F(4OEtNHDOTA-Lu)-Ahp-Trp-Gly-3PyA(6NH2)-Asp-D-Pro (cyclo(GG[NMeF][F(4OEtNHDOTA-Lu)][Ahp(2)]WG[3Pal(6-NH2)]D[dP]); also: Lu complex of DOTA) [Example C24] | 0.013 | 0.059 | 0.035 |
| Gly-Gly-NMePhe-F(4OEtNHDOTA-Lu)-Ahp-Trp-Gly-K(COpipzaa)-Asp-D-Pro (cyclo(GG[NMeF][F(4OEtNHDOTA-Lu)][Ahp(2)]WG[K(COpipzaa)]D[dP]); also: Lu complex of DOTA) [Example C27] | 0.026 | 0.072 | 0.102 |
| Gly-Gly-NMePhe-F(4OEtNHRDOTAGA-Ga)-Ahp-Trp-Gly-Tyr-Asp-D-Pro (cyclo(GG[NMeF][F(4OEtNHRDOTAGA-Ga)][Ahp(2)]WGYD[dP]); also: Ga complex of DOTAGA) [Example C38] | 0.012 | 0.048 | 0.037 |
